Data from patent US20040191820, “Protection-of telomere-1 (POT-1) protein and encoding polynucleotides” (The Regents of the University of Colorado, published 2004).

T1: hPot1p (Homo sapiens, UniProt Q9NUX5 SEQ:1-634)
T1 chain: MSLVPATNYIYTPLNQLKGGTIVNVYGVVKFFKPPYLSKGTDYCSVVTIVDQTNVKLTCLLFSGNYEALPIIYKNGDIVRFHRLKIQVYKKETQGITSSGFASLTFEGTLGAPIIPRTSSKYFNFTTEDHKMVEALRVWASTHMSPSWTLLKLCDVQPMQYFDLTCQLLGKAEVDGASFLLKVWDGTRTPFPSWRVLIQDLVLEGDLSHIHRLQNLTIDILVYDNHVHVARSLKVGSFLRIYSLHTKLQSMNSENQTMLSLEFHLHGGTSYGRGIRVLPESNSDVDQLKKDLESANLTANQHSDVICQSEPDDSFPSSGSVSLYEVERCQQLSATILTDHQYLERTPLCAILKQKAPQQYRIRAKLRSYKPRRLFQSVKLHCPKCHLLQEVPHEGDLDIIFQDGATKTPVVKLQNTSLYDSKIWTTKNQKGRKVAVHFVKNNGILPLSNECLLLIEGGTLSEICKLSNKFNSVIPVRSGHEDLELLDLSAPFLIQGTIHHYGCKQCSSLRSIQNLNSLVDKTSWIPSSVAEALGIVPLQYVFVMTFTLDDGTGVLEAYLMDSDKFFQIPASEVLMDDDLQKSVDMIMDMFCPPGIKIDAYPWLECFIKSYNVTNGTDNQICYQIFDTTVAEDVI


Assays:
hPot1p [1] = target: T1, hPot1p; test: EMSA; conditions as for SpPot1p; conditions: tags: N-terminal His6 (pQE30), E. coli
hPot1p [2] = target: T1, hPot1p; test: listed as hPot1p-binding; conditions: tags: N-terminal His6 (pQE30), E. coli

Binder | binding result (hPot1p [1]) | binding result (hPot1p [2])
TTAGGGTTAGGGTTAGGGTTAGGGTTAGGG (ssDNA) [human G-strand (TTAGGG)5 (PBoli179)] | binds | –
TTAGGGTTAGGGTTAGGGTT (ssDNA) [PBoli177] | – | binds
GGTTAGGGTTAGGGTTAGGG (ssDNA) [PBoli178] | – | binds
